US12624112 (MABWELL SHANGHAI BIOSCIENCE, dated 2026)

T1: ST2 on KU812 cells (UniProt Q01638 19-556, limits assumed)
T1 sequence (looked up): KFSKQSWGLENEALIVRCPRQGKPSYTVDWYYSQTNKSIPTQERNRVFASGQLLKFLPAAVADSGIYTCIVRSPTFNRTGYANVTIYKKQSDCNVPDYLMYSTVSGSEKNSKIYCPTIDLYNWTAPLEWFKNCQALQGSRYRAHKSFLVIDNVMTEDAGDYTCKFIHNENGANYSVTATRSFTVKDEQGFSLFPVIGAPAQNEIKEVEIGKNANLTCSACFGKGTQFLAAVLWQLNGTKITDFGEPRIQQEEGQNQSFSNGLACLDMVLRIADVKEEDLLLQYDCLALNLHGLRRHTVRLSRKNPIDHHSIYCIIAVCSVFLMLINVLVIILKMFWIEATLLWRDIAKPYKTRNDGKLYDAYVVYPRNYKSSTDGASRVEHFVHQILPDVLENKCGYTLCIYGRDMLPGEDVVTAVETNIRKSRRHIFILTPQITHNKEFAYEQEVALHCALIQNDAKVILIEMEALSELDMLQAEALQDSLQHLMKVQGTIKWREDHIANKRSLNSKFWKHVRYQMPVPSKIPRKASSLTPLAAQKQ

T2: Cyno ST2-fc (cyno; human, UniProt A0A2K5UDB8 19-331)
T2 construct: also called cyno ST2 fused with a human IgG1 Fc tag at the C-terminus
T2 sequence: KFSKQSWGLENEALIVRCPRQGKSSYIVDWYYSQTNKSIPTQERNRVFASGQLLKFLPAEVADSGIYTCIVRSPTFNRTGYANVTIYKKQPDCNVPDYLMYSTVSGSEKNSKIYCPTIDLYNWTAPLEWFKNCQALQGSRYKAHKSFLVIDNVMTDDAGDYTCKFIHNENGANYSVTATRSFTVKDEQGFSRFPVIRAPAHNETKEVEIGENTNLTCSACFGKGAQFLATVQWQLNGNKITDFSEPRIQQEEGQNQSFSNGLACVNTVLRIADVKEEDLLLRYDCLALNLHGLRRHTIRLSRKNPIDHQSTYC

T3: Human ST2-his (human, UniProt Q01638 19-328)
T3 construct: Expressed in CHO-K1; also called human ST2 fused with a 6-histidine tag at the C-terminus
T3 sequence: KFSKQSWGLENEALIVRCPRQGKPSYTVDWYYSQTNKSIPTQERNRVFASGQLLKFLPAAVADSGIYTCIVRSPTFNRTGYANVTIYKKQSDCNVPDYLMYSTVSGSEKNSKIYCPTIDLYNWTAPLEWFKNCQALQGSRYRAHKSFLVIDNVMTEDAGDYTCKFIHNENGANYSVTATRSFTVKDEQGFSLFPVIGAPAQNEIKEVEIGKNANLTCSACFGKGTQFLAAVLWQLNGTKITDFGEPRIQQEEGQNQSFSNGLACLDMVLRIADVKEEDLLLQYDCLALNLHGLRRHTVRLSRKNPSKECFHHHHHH


How the values were obtained:
ST2 on KU812 cells [1] = target: T1, ST2 on KU812 cells; test: cell-based or functional assay
ST2 on KU812 cells [2] = target: T1, ST2 on KU812 cells; test: cell-based or functional assay; remark: listed apart in the source
Cyno ST2-fc [3] = target: T2, Cyno ST2-fc; test: ELISA, coated cyno ST2-fc
Experimental: Cyno ST2-fc was diluted with a coating buffer to 1 μg/mL, added into 96-well plates at 50 μL/well and coated overnight at 4° C. Next day, the coated plates were taken, washed with PB ST for 3 times, and then incubated using a blocking buffer at room temperature for 1 hr. Subsequently, the plates were washed with PBST for 3 times again. Starting at 1000 ng/mL, each murine antibody was diluted 3-fold to obtain serial dilutions of 8 concentrations in total which were then added into the 96-well plates at 50 μL/well. The plates were incubated at room temperature for 1 hr, washed with PB ST for 3 times; and then a goat anti-mouse secondary antibody (1:10000) was added at 50 μL/well into the 96-well plates which subsequently were incubated at room temperature for 1 hr. The 96-well plates were washed with PB ST for 3 times, and TMB was added at 50 μL/well to develop color in dark for 10 min. Afterwards, 2 M sulfuric acid was added to stop reaction; and GD values at 450 nm were read by a microplate reader. It can be seen that the murine antibodies can bind to cyno ST2, with a binding trendency consistent with the binding to human ST2.

Human ST2-his [4] = target: T3, Human ST2-his; test: ELISA, coated human ST2-his
Experimental: Human ST2-his was diluted with a coating buffer to 1 μg/mL, added into plates at 50 μL/well, and coated overnight at 4° C. Next day, the coated plates were taken, washed with PBST for 3 times, and then incubated using a blocking buffer at room temperature for 1 hr. Subsequently, the plates were washed with PBST for 3 times again. Starting at 100 ng/mL, each murine antibody was diluted 3-fold to obtain serial dilutions of 8 concentrations in total which were then added into the 96-well plates at 50 μL/well. The plates were incubated at room temperature for 1 hr, washed with PBST for 3 times; and then a goat anti-mouse secondary antibody (1:10000) was added at 50 μL/well into the 96-well plates which subsequently were incubated at room temperature for 1 hr. The 96-well plates were washed with PBST for 3 times, and TMVB was added at 50 μL/well to develop color in dark for 10 min. Afterwards, 2 M sulfuric acid was added to stop reaction; and GD values at 450 nm were read by a micro-plate reader.

Human ST2-fc (human) = Human ST2-fc (human) (UniProt Q01638); test: competition ELISA, coated ST2-fc, competitor IL33-his
Cyno ST2-fc [5] = target: T2, Cyno ST2-fc; test: SPR Biacore X100, antibody on CM5, cyno ST2-fc analyte
Experimental: The experiment on the interactions between the anti-human ST2 antibodies and cyno ST2-fc was performed using Biacore X100, and was carried out at 25° C. in HBS-EP (1×) buffer (pH 7.4). Each antibody was immobilized on the surface of CM5 chip using an amino coupling kit. Following the antibody immobilization, a solution of cyno ST2-fc (2-fold gradient dilution from a starting concentration of 8 nM, to obtain 6 concentrations in total; the starting concentration might be increased if the signal of some sample was too low) was injected. Association was monitored for 2 min and dissociation for 10 min, and the sensor surface was regenerated by injecting a solution of glycine at pH 1.5.

Human ST2-his [6] = target: T3, Human ST2-his; test: SPR Biacore X100, antibody on protein A, ST2-his analyte
Experimental: On the basis of the results of the quantitative screenings of murine antibodies above together, 19 murine antibodies were selected for affinity determination and in vitro pharmacological study. The experiment on the interaction between the anti-human ST2 antibodies and human ST2-his was performed using Biacore X100, and was carried out at 25° C. in HBS-EP (1×) buffer (pH 7.4).
Each anti-human ST2 antibody was diluted to 10 nM and captured on the surface of a protein A chip (for a capture time of 60 s). […] Association was monitored for 4 min and dissociation for 10 min, and the sensor surface was regenerated by injecting a solution of glycine at pH 2.0. Data generated for kinetics and affinity assay were analyzed using BIAevaluation software.

| Binder | IC50, activation of KU812-NF-κB reporter gene by IL33 (ST2 on KU812 cells [1]) | Relative activity (%) compared with CNTO7160, KU812-NF-κB reporter (ST2 on KU812 cells [1]) | Maximum inhibition rate (%), KU812 IL-5 production (ST2 on KU812 cells [2]) | Relative activity (%), KU812 IL-5 production (ST2 on KU812 cells [2]) | EC50 (Cyno ST2-fc [3]) | Relative activity (%) (Cyno ST2-fc [3]) | EC50 (Human ST2-his [4]) | Relative activity (%) compared with CNTO7160 (Human ST2-his [4]) | IC50 (Human ST2-fc (human)) | Relative activity (%) compared with CNTO7160 (Human ST2-fc (human)) | Kd (Cyno ST2-fc [5]) | koff (Cyno ST2-fc [5]) | kon (Cyno ST2-fc [5]) | Kd (Human ST2-his [6]) | koff (Human ST2-his [6]) | kon (Human ST2-his [6]) |
| --- | --- | --- | --- | --- | --- | --- | --- | --- | --- | --- | --- | --- | --- | --- | --- | --- |
| 5886-156H+L (antibody, V domains shown, murine antibody) VH: DVQLQQSGPGLVKPSQSLSLTCTVTGYSITSDYAWNWIRQFPGNKLEWMGYIDYSGSTTYNPSLKSRFSITRDTSKNQFFLQLNSVTTEDTATYYCASTVIDSMDYWGQGTSVTVSS VL: DIVLTQSPASLAVSLGQRATISCRASKSVSTSGHSYMHWYQQKPGQPPKLLIYLASNLESGVPARFSGSGSGTDFTLNINPMEEEDAATYYCQHSREFPFTFGSGTKLEIK | 0.00804 µg/mL | 127% | 84.2% | 304% | 0.0203 µg/mL | 66.4% | 0.0161 µg/mL | 131% | 1.14 µg/mL | 76.6% | 0.206 nM | 0.000747 s⁻¹ | 3.62e+06 M⁻¹ s⁻¹ | 0.461 nM | 0.00109 s⁻¹ | 2.37e+06 M⁻¹ s⁻¹ |
| 5887-41H+L (antibody, V domains shown, murine antibody) VH: DVQLQQSGPGLVKPSQSLSLTCTVTGYSITSDYAWDWIRQFPGNKLEWMGYIRYSGDTYYNPSLKSRISITRDTSKNQFFLQLNSVTTEDTATYYCATTMMDTMDYWGQGTSVTVSS VL: DIVLTQSPASLTVSLGQRATISCRASKSVSTSGNSYMHWYQQKPGQPPKLLIYLASNLESGVPARFSGSGSGTDFTLNIHPVEEEDAATYYCQHSREFPLTFGAGTKLELK | 0.00287 µg/mL | 41.9% | 79.2% | 128% | 0.0615 µg/mL | 21.9% | 0.0266 µg/mL | 97.9% | 1.29 µg/mL | 82.7% | 0.0903 nM | 0.000721 s⁻¹ | 7.98e+06 M⁻¹ s⁻¹ | 0.56 nM | 0.000613 s⁻¹ | 1.1e+06 M⁻¹ s⁻¹ |
| 5887-537H3+L1 (antibody, V domains shown, murine antibody; also called 5887-537H3H+L1) VH: QVTLKESGPGILQPSQTLSLTCSFSGFSLSTSGMGVGWIRQPSGKGLEWLAHIWWDDVKQYNPALKSRLTISKDTSSSQVFLKSASVDTADTATYYCARIGGDYDYFDFWGQGTTLTVSS VL: DIVLTQSPASLAVSLGQRATISCRASESVEYSGTSLMQWYQQKPGQPPKLLIYVASNVESGVPARFSGSGSGTDFSLNIHPVEEDDIAMYFCQQSRKVPWTFGGGTKLEIK | 0.101 µg/mL | 40.2% | 62.2% | 767% | 0.0171 µg/mL | 78.5% | 0.0123 µg/mL | 72.4% | 0.99 µg/mL | 93.5% | 0.0807 nM | 0.000511 s⁻¹ | 6.33e+06 M⁻¹ s⁻¹ | 0.168 nM | 0.00084 s⁻¹ | 5.01e+06 M⁻¹ s⁻¹ |
| Control antibody CNTO7160 (antibody, human IgG4 S228P, kappa, V domains shown) VH: EVQLLESGGGLVQPGGSLRLSCAASGFTFSIYDMIWVRQAPGKGLEWVSSIRGEGGGTYYADSVKGRFTISRDNSKNTLYLQMNSLRAEDTAVYYCARDPWSTEGSFFVLDYWGQGTLVTVSS VL: EIVLTQSPATLSLSPGERATLSCRASQSVDDDLAWYQQKPGQAPRLLIYDASNRATGIPARFSGSGSGTDFTLTISSLEPEDFAVYYCQQYITAPLTFGQGTKVEIKR |  |  | 89% |  |  |  |  |  |  |  | 0.136 nM | 0.000221 s⁻¹ | 1.63e+06 M⁻¹ s⁻¹ | 0.698 nM | 0.000539 s⁻¹ | 827000 M⁻¹ s⁻¹ |
